Laboratory results published in US20080311122A1, “Antagonists of Hmgb1 and/or Rage and Methods of Use Thereof” (Medimmune, LLC, priority 2005, published 2008).

T1: HMG2 (Bos taurus, UniProt P40673)
T1 construct: from tissue; host or cells: calf thymus (as read from the sentence)
T1 sequence (P40673 1-209): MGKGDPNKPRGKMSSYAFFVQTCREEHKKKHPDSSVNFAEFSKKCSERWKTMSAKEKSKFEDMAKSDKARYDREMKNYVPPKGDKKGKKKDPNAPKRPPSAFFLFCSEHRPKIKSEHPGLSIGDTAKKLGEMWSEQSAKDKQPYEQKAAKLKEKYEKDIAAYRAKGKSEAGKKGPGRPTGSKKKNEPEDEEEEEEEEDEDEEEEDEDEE

T2: recombinant HMG1 binding to RAGE-Fc (Homo sapiens, UniProt P09429)
T2 construct: made in house; host or cells: E. coli (HMG1)
T2 sequence (P09429 1-215): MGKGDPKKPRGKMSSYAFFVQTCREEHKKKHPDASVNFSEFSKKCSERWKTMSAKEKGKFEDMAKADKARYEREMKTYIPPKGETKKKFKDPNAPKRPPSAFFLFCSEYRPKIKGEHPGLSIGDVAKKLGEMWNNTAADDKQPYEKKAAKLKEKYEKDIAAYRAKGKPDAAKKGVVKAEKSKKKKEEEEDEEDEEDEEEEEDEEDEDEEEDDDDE

B1: S17: human anti-HMG1 antibody; VL/VH aa SEQ ID NO: 70/72 (antibody, listed as Homo sapiens, V domains shown)
VH: EVQLLESGGGLVQPGGSLRLSCAASGFTFSYYDMHWVRQAPGKGLEWVSRISPSGGYTWYADSVKGRFTISRDNSKNTLYLQMNSLRAEDTAVYYCTRGRYTSGWHEYFDPWGQGTLVTVSS
VL: AQDIQMTQSPSSLSASVGDRVTITCRASQSIGTYLNWYQQKPGTAPKVLIYAASSLQSGVPSRFSGSGSGTDFTLTISSLQPEDFSTYYCQQSYNTPRTFGQGTKLEIK
B2: G2: human anti-HMG1 IgG1 from Fab phage display library; VL/VH aa SEQ ID NO: 30/32 (antibody, listed as Homo sapiens, V domains shown)
VH: EVQLLESGGGLVQPGGSLRLSCAASGFTFSWYKMQWVRQAPGKGLEWVSGISPSGGSTAYADSVKGRFTISRDNSKNTLYLQMNSLRAEDTAVYYCAKMGLFNTGNSYVDYWGQGTLVTVSS
VL: AQSELTQPPSVSEAPGQRVTISCSGSTSNIGNNAVIWYQQLPGKAPKLLIYYDDLLPSGVSDRFSGSKSGTSGSLAISGLQSEDEADYYCASWDDNLNGPLFGGGTKLTVL

Legend:
HMG2 = biological target: T1, HMG2; assay: Binding to HMG1 vs. HMG2 ELISA; set-up: species or system calf; details: immobilized antigen
Procedure: Binding to HMG1 vs. HMG2: Ultra high-binding ELISA plates (ThermoLab systems, #3855) were coated with either 5 ug/mL of Calf thymus HMGB1 or HMBG2 diluted in 10 mM Phosphate buffered saline (PBS), pH 7.2 and incubate overnight at 4 degrees. The plates were washed twice with Ca and Mg free PBS and 100 microliters of anti-HMGB1 antibody diluted in 10 mM PBS, pH 7.2+1% bovine serum albumin (BSA) to a final concentration of 10 ug/mL was added to each well and the plates were incubated 1 hour at room temperature. The wells were washed three times with 100 μl of PBS, pH 7.2. HRP labeled goat-anti-human IgG Kappa-chain (KPL, #14-10-10) and goat-anti-human IgG Lambda-chain (KPL, #14-10-11) were diluted in 10 mM PBS+1% BSA 1:1000 and 100 μl were added to each well and incubated for 1 hour at room temperature. The wells were then washed three times with 100 μl of PBS, pH 7.2. OPD substrate (Pierce chemical company, #34006) was prepared following the manufacturers instructions and 100 μl of prepared substrate was added to each well and the plates incubated at room temperature in the dark for 20-30 minutes. The reaction was stopped with the addition of 100 μl of 2M H2SO4, and the plates read on a plate reader at a wavelength of 490 nm.

[1] = Isoelectric focusing gel electrophoresis; assay type: physicochemical
Procedure: Isoelectric Focusing Gel Electrophoresis: Isoelectric points were determined using a Pharmacia Biotech Multiphor 2 electrophoresis system with a multi temp 3 refrigerated bath recirculation unit and an EPS 3501 XL power supply. Pre-cast ampholine gels (Amersham Biosciences, pI range 2.5-10) were loaded with 5 μg of protein. Broad range pI marker standards (Amersham, pI range 3-10, 8 μL) were used to determine relative pI for the Mabs. Electrophoresis was performed at 1500 V, 50 mA for 105 minutes. The gel was fixed using a Sigma fixing solution (5×) diluted with purified water to 1×. Staining was performed overnight at room temperature using Simply Blue stain (Invitrogen). Destaining was carried out with a solution that consisted of 25% ethanol, 8% acetic acid and 67% purified water. Isoelectric points were determined using a Bio-Rad Densitometer relative to calibration curves of the standards.

[2] = biological target: T2, recombinant HMG1 binding to RAGE-Fc; assay: HMG1 binding to RAGE-Ig by ELISA; details: at the concentrations tested
Procedure: HMG1 binding to RAGE-Ig by ELISA: 50 μl/well of RAGE-Fc fusion protein at 5 μg/ml in PBS was added to each well of an ELISA plate and incubated overnight at 4° C. The plate was then blocked with 200 μl of 5% milk at 37° C. for 1 hr and washed 3× with PBS/Tween. 50 μl/well of diluted HMGB1 solution. For dose curves, HMGB1 concentrations started at 4 ug/ml in PBS. For antibody blocking the HMGB1 was preincubated in another plate with human anti-HMG1 antibodies or buffer, then transferred to the RAGE-coated plate. The plates were then incubated at room temperature for 2 hours and washed 3×. To detect any HMG1 bound to the immobilized RAGE-Fc a mixture of biotinylated mouse anti-HMG1 mAbs (10D4, 4H11, 3E10 and 5C12) each at 1 ug/ml, total Ab: 4 ug/ml, were added to each well and the plate was incubated for 1 hour at room temperature. The plate was then washed and Strepavidin-HPR was added to each well and incubated 15 min. The plate was then washed 3× and blotted dry. 100 μl of TMB developing agent was added and the plate read at 650 nm. Values were calculated as percent of inhibition with HMG1 alone equal to 0% inhibition. The data in FIG. 9 and summarized in Table 1 represent the average of two separate experiments.

[3] = tested on: HMG1 (recombinant, native; immobilized, soluble); assay: Direct and sandwich (capture) ELISA comparing forms of HMG1; assay type: binding; details: two ELISA formats, rHMG1
Procedure: Direct ELISA (immobilized HMG1): Individual wells of a 96-well immunoplate (EIA/RIA plate, High binding, Costar) were coated with HMGB-1 at 5 μg/ml in PBS at 4° C. overnight. The plate was then blocked with 4% milk powder dissolved in PBS at 37° C. for 1 hour. The blocking solution was removed and replaced with human anti-HMG1 antibodies at various concentrations (see FIG. 4A). The plate was then washed (ELX-405 Plate washer, BIO-TEK) and secondary antibody (anti-human IgG-HRP, PIERCE) was added at a final concentration of 1:125,000 at 37° C. for 1 hour. HRP activity was detected with Sureblue HRP substrate (KPL). Plates were read at 450 nm using a Kinetic Microplate Reader (Molecular Devices).
Sandwich ELISA (soluble HMG1): Immunoplates (EIA/RIA plate, High binding, Costar) were coated with anti human IgG Fc at 10 μg/ml in PBS (pH 7.2) and incubated at 4° C. overnight. The coating reagent was removed and the plates were rinsed briefly with PBS. The plates were then blocked with 4% milk for 1 hour at 37° C. and rinsed with PBS. The anti-HMG1 antibodies were diluted in 4% milk. For serial dilutions, the antibodies were used at a starting concentration of 20 μg/ml. The diluted anti-HMG1 antibodies were then added into plate and incubated for 1 hr at 37° C. The plate was then washed 10 times with PBST (PBS/0.1% tween 20) and incubate with antigen (HMGB1, 2 μg/ml; or 0.7 μg/ml for native HMGB1) in 4% milk and incubated at 37° C. for 1 h. The plate was then wash 10 times and incubated with mouse anti-HMGB1, 1 μg/ml in 4% milk at 37° C. for 1 h. The plate was washed 10 times and incubated with anti-mouse IgG-HRP at 1:1000 at 37° C. for 1 h. The plate was then washed and developed. HRP activity was detected with Sureblue HRP substrate (KPL). Plates were read at 450 nm using a Kinetic Microplate Reader (Molecular Devices).

Molecule	relative binding to HMG1 and HMG2 (HMG2)	PI [1]	block of recombinant HMG1 binding to RAGE [2]	binding to immobilized versus soluble HMG1 [3]
B1	specific for HMG1	8.7	do not at the concentrations tested	to a lesser extent S17 have a higher affinity for soluble HMG1
B2	specific for HMG1	7.78	significant ability to block the binding of HMG1 to RAGE	little difference in binding to immobilized or soluble HMG1
